Target: the molecule itself
Assay: cryo-EM structure

B1: Saccharomyces cerevisiae vacuolar transient receptor potential yeast 1 (TRPY1) channel, full length (natural protein, UniProt Q12324 1-675, looked up)
chain: MVSANGDLHLPISNEQCMPENNGSLGFEAPTPRQILRVTLNLKYLIDKVVPIVYDPNDIVCDHSEILSPKVVKLAYEACGGNPKDKANKRKYQSVIIFSLLKVCEWYSILATMEVHNAKLYETRNLASQQLCKLLIEREETRDLQFLFMQLLLRRYVINENDEDQEPLNALELATDMHCTTVIGSSGFQRCLKWIWRGWIVQNGLDPTTFIKDDSLAEVSLISHFNPVRLKAPVYQNYLQMIFSFLFLGLYTLVVNGKDSERVQSFDLLESIFYVFNTGFILDELTKLYYIGYAHLSFWNLFNDTTYLIITFAMGFRAMSVTPLNAKYSSEDWDKISYRVLSCAAPFVWSRLLLYLESQRFIGIMLVILKHMMKESIVFFFLLFLIMIGFTQGFLGLDSADGKRDITGPILGNLTITVLGLGSFDVFEEFAPPYAAILYYGYYFIVSVILLNILIALYSTAYQKVIDNADDEYMALMSQKTLRYIRAPDEDVYVSPLNLIEVFMTPIFRILPPKRAKDLSYTVMTIVYSPFLLLISVKETREARRIKYNRMKRLNDDANEYDTPWDLTDGYLDDDDGLFSDNRNSGMRATQLKNSRSLKLQRTAEQEDVHFKVPKKWYKNVKKCSPSFEQYDNDDTEDDAGEDKDEVKELTKKVENLTAVITDLLEKLDIKDKKE
- stoichiometry N: 4

From article doi:10.1101/2020.10.12.336495 (bioRxiv, 2020)
